These results are taken from US20110091480A1 (published 2011).

In test [1] the target is T1, ORF0657n-H/y (SEQ ID NO: 3) (S. aureus, UniProt A6QG30 42-609).
T1 construct: also called Yeast expressed ORF0657n-H/y antigen
The test can be described thus: Western blot (dot blot confirmed by Western).

For test [2], the target named is T2, ORF0657t (ORF0657n fragment from amino acid 42 to amino acid 486 of SEQ ID NO: 1) (S. aureus, UniProt A5IS15 42-486).
T2 construct: also called ORFO657t
The test can be described thus: SPR Biacore 3000, IgG captured as ligand, ORF0657t as analyte.

Test [3] addresses T3, ORF0657t CNBr fragment [215-302] (Band 10 kDa) (S. aureus, UniProt A5IS15 255-342).
T3 construct: also called 10 kDa band
T3 sequence: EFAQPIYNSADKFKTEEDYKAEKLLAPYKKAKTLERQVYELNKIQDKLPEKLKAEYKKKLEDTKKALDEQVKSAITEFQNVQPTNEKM
The test is described as follows: Western blot of CNBr cleavage products of ORF0657t with 2H2 mAb (Band 10 kDa). On the technique in general: Immunoblotting shows a protein as a band on a membrane.

In test [4] the target is T4, ORF0657t CNBr fragment [357-446] (Band 10 kDa) (S. aureus, UniProt A5IS15 397-486).
T4 construct: also called 10 kDa band
T4 sequence (A5IS15 397-486): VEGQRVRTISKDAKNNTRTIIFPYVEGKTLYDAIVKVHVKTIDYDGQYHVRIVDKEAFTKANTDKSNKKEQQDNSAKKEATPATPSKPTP
Described as above.

Test [5] deals with T5, ORF0657t CNBr fragment [114-214] (Band 10 kDa) (S. aureus, UniProt A5IS15 154-254).
T5 construct: also called 10 kDa band
T5 sequence: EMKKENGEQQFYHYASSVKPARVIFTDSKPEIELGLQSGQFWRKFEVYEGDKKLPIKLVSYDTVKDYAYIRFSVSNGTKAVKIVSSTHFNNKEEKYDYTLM
The test is described as above.

In test [6] the target is T6, ORF0657t CNBr fragment [116-302] (Band 25 kDa) (S. aureus, UniProt A5IS15 156-342).
T6 construct: also called 25 kDa band
T6 sequence: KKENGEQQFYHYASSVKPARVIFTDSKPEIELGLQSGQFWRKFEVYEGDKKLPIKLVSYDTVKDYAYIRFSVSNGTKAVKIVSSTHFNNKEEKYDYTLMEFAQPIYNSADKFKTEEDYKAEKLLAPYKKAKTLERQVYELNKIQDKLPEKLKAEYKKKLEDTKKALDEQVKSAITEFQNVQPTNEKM
The test can be described thus: Western blot of CNBr cleavage products of ORF0657t with 2H2 mAb (Band 25 kDa).

The target of test [7] is T7, ORF0657t CNBr fragment [001-214] (Band 25 kDa) (S. aureus, UniProt A5IS15 42-254).
T7 construct: also called 25 kDa band
T7 sequence: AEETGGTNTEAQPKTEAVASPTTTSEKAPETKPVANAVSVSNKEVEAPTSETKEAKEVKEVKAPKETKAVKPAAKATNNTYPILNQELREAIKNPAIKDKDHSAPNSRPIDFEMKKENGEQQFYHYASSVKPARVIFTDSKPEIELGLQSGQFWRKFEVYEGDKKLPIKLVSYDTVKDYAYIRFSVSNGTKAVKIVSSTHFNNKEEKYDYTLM
Described as above.

Test [8] has as its target T8, ORF0657t CNBr fragment [215-356] (Band 15 kDa) (S. aureus, UniProt A5IS15 255-396).
T8 construct: also called 15 kDa band
The test is described as follows: Western blot of CNBr cleavage products of ORF0657t with 2H2 mAb (Band 15 kDa).

Test [9] addresses T9, ORF0657t CNBr fragment [303-446] (Band 15 kDa) (S. aureus, UniProt A5IS15 343-486).
T9 construct: also called 15 kDa band
The description is as above.

Test [10] deals with T10, ORF0657t CNBr fragment [001-323] (Band 35 kDa) (S. aureus, UniProt A5IS15 42-363).
T10 construct: also called 35 kDa band
T10 sequence: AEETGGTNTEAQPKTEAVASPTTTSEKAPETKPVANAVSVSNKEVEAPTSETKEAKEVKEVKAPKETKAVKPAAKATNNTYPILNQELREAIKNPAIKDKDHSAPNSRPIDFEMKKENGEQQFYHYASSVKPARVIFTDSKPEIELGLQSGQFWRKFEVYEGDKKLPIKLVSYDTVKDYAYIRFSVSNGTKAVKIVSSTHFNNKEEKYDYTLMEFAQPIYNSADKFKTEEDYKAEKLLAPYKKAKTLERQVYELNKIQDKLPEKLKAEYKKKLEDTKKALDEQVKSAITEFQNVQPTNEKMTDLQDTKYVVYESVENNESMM
The test can be described thus: Western blot of CNBr cleavage products of ORF0657t with 2H2 mAb.

The target of test [11] is T2, ORF0657t (ORF0657n fragment from amino …). The test is described as follows: SPR Biacore 3000, ORF0657t bound to the surface, antibody fragment as analyte. (In general: Surface plasmon resonance follows binding to a sensor surface in real time, without labels.)

What is called Kd is a measure of binding affinity in units of concentration. A higher Kd goes with weaker binding. The koff is the rate constant with which the complex falls apart. Read a low koff as slow dissociation. By kon is commonly meant the rate constant with which the complex forms.

T9 sequence (A5IS15 343-486): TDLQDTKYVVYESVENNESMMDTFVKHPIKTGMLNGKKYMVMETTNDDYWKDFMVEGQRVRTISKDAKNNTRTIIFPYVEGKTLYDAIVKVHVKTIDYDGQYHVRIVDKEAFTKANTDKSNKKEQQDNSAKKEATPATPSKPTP
T1 sequence (A6QG30 42-609, tags left off): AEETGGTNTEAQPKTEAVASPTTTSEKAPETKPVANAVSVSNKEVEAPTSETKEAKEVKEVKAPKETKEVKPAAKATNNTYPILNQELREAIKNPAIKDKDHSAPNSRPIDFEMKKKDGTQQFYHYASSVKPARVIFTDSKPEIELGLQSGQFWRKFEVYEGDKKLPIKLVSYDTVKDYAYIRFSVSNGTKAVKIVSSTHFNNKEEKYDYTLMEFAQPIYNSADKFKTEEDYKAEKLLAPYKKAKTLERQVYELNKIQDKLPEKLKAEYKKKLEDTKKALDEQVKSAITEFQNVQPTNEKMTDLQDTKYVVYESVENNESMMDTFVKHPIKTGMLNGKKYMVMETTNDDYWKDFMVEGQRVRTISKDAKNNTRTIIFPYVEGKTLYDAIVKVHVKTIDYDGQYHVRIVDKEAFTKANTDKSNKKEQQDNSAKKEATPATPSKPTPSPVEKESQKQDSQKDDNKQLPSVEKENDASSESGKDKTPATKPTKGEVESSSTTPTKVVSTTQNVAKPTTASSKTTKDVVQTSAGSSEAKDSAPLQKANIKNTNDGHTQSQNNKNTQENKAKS

B1: mAb 2H2.B8 (antibody, V domains shown)
VH: DVHLVESGPGLVAPSQNLSITCTVSGFSLSRYGVHWVRQPPGKGLEWLGLIWAGGVTIYNSTLMSRLSISKDSSKSQVFLKMNSLQIDDTAIYYCAREASRDHYFDYWGQGTTLTVSS
VL: DIVMTQSPAIMSASPGEKITMTCSASSSVSYIYWYQQKSGTSPKRWIYDTSKLASGVPFRFSGGGSGTSFSLTISSMEAEDAATYYCQQWSSNPLTFGAGTKLEIKR
notes: also called 2H2.B8 (IgG1)
In the case of B1, the binding result in test [1] was “binds”.

B2: 2H2 IgG chimera (antibody, V domains shown)
VH: B1 VH
VL: B1 VL
notes: also called chimeric antibody; Mouse 2H2 Variable and Human IgG1 / Human Kappa Constant Region
In [2], B2 had a Kd of 25 nM, a koff of 0.00273 s⁻¹ and a kon of 110000 M⁻¹ s⁻¹.

B3: mAb 2H2.BE11 (antibody, V domains shown)
VH: B1 VH
VL: B1 VL
notes: also called 2H2.BE11 (IgG2b); 2H2 mAb
On to B3, for which the binding result in [3], in test [4], in test [5], in test [6], in [7] and in test [8] was “no binding” each time. Also, the binding result in test [9] and in [10] was “no binding” in each case. Also, the Kd in [2] is 33 nM. In [2], this molecule came in with a koff of 0.00201 s⁻¹. In test [2], this molecule had a kon of 61000 M⁻¹ s⁻¹.

B4: 2H2 scAb (scFv)
scFv: DIVMTQSPAIMSASPGEKITMTCSASSSVSYIYWYQQKSGTSPKRWIYDTSKLASGVPFRFSGGGSGTSFSLTISSMEAEDAATYYCQQWSSNPLTFGAGTKLEIKRGGGGSGGGGSGGGGSGGGGSDVHLVESGPGLVAPSQNLSITCTVSGFSLSRYGVHWVRQPPGKGLEWLGLIWAGGVTIYNSTLMSRLSISKDSSKSQVFLKMNSLQIDDTAIYYCAREASRDHYFDYWGQGTTLTVSSRTVAAPSVFIFPPSDEQLKSGTASVVCLLNNFYPREAKVQWKVDNALQSGNSQESVTEQDSKDSTYSLSSTLTLSKADYEKHKVYACEVTHQGLSSPVTKSFNRGEC
notes: domain: human kappa light chain constant domain; also called 2H2 clone; scFv with a Human Kappa chain tag
On to B4, for which, in [11], the Kd was 39 nM, the koff was 0.00191 s⁻¹ and the kon was found to be 49100 M⁻¹ s⁻¹.
